{"source": "patent US20260263521A1", "about": "(AIMED BIO, published 2026)", "key": {"[1]": {"target": "T1, human CD200R1 expressed on cells (Jurkat-CD200R1, U937-CD200R1, HH cells) (human, UniProt Q8TD46 25-348)", "T1 sequence (looked up)": "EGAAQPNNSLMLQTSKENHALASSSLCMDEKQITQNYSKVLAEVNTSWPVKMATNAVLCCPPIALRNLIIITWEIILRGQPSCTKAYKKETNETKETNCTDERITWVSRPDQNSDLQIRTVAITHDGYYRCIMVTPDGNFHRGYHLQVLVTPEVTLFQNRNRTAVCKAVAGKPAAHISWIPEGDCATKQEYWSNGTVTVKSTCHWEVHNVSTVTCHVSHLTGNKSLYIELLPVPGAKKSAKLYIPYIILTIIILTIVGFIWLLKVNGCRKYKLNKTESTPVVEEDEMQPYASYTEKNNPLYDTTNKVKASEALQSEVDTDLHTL", "assay": "cell-based or functional assay"}, "[2]": {"target": "T1, human CD200R1 expressed on cells …", "assay": "flow cytometry, HH cells", "procedure": "(§1) Two additional wells were treated with 10 μl of mouse IgG1K (BD, #555751) and 5 μl of commercial CD200R1 antibody (Biolegend, #329308) to determine CD200R1 expression on the cell line surface for cell quality control.\n(§2) The antibodies were serially diluted 10-fold from a maximum concentration of 100 nM to 10 nM, 1 nM, […], and were added to the pre-seeded cells. After reaction for 1 hour at 4° C., the cells were treated with Alexa-647 goat anti-human IgG (H+L) cross-adsorbed secondary antibody (Invitrogen, #A21445) and incubated for an additional 30 minutes at 4° C. After washing twice with FACS buffer, flow cytometry was performed using a Novocyte Flow cytometer (Agilent). Using GraphPad Prism software, the EC₅₀ was determined using a nonlinear graph model of log (agonist) vs. response-variable slope, as shown in Table 32."}, "[3]": {"target": "T1, human CD200R1 expressed on cells …", "assay": "flow cytometry, U937-CD200R cells", "procedure": "as §1, §2"}, "[4]": {"target": "T1, human CD200R1 expressed on cells …", "assay": "flow cytometry, Jurkat-CD200R cells", "procedure": "as §1, §2"}, "[5]": {"target": "T1, human CD200R1 expressed on cells …", "assay": "cell-based or functional assay", "remark": "listed apart in the source"}, "[6]": {"target": "T2, human CD200R1 with dual His-tags (human, UniProt Q8TD46 25-265)", "T2 construct": "Captured on the SPR chip by an anti-histidine antibody; also called hCD200R1-his; not shown: dual His-tags", "T2 sequence (looked up)": "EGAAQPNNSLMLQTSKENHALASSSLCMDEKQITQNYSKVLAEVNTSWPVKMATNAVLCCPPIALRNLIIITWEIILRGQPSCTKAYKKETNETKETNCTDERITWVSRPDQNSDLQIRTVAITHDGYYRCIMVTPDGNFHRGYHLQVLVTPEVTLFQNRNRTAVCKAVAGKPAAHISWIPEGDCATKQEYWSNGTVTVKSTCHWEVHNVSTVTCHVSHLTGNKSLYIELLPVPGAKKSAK", "assay": "SPR (Biacore CM5), His-tagged antigen captured by anti-histidine antibody, antibody as analyte, 1:1 Langmuir fit", "procedure": "(§3) For the experiment, 30 μg/mL of an anti-histidine antibody was conjugated to a CM5 biacore chip via an amine bond while allowing to flow at 10 μl/min (10,000 RU). Then, 0.25 μg/mL of human or cynomolgus CD200R1 with dual His-tags was captured onto the completed chip for 60 seconds, and the binding ability of each antibody was analyzed. All experiments were performed by association of antibodies for 120 seconds and dissociation of antibodies for 600 seconds. The resulting graphs were fitted using a 1:1 Langmuir binding kinetic model (FIG. 16), and the kinetics of each antibody were calculated."}, "[7]": {"target": "T3, cynomolgus CD200R1 with dual His-tags (cynomolgus, UniProt G7NZT0 25-266)", "T3 construct": "Captured on the SPR chip by an anti-histidine antibody; also called CCD200R1-his; cCD200R1-his; not shown: dual His-tags", "T3 sequence": "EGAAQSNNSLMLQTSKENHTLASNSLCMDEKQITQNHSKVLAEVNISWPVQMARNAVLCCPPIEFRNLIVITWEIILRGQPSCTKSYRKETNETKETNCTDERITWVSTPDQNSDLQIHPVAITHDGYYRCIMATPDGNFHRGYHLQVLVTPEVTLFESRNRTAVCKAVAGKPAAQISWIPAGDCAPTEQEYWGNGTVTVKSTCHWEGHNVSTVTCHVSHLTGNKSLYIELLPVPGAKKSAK", "assay": "SPR (Biacore CM5), His-tagged antigen captured by anti-histidine antibody, antibody as analyte, 1:1 Langmuir fit", "procedure": "as §3"}, "[8]": {"target": "T4, human CD200R1 recombinant protein (construct not stated) (human, UniProt Q8TD46 27-266, limits assumed)", "T4 sequence (looked up)": "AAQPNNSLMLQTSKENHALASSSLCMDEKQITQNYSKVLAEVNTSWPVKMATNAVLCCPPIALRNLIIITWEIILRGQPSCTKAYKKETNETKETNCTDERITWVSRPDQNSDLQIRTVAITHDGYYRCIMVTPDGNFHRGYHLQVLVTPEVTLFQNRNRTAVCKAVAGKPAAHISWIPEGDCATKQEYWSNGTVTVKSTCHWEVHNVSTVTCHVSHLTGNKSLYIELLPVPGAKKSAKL", "assay": "ELISA on human CD200R1, normalized absorbance at 450 nm, 0.0192-300 nM; panel 'Human CD200R1'"}, "[9]": {"target": "T5, mouse CD200R1 protein (R&D systems, 2554-CD) (mouse, UniProt Q9ES57 26-238, limits assumed)", "T5 construct": "Bought; construct not described", "T5 sequence (looked up)": "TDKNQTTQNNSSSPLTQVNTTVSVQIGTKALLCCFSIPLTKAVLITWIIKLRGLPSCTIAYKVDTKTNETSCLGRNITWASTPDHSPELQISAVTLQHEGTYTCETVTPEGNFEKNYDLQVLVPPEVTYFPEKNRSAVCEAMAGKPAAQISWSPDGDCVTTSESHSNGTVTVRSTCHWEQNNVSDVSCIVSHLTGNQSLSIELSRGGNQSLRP", "assay": "ELISA on mouse CD200R1, O.D 450 nm, 0.0192-300 nM; panel 'P001_CD200R1 mouse 1'", "procedure": "(§4) 96-well plates were coated with human CD200R1 (R&D systems, 3414-CD) and mouse CD200R1 protein (R&D systems, 2554-CD) at a concentration of 2 μg/mL at 4° C. for 16 hours and then were blocked with 3% skim milk.\n(§5) Color was developed with a TMB substrate solution (Thermo Scientific, 34029, 1-Step™ TMB-ELISA Ultra Substrate Solution). The color reaction was stopped with stop solution (Invitrogen, SS04, ELISA Stop Solution). The absorbance was measured at an optical density of 450 nm.\n(§6) The secondary engineered antibodies were evaluated by ELISA in the same manner as in Examples described above."}, "[10]": {"target": "T4, human CD200R1 recombinant protein …", "assay": "ELISA on human CD200R1, O.D 450 nm, 0.0192-300 nM; panel 'P001_CD200R1 human 1'", "procedure": "as §4, §5, §6"}, "[11]": {"target": "T6, human CD200RLa (Sino Biological, 11620-H08H) recombinant protein (human, UniProt Q6Q8B3 24-239)", "T6 construct": "Bought; construct not described", "T6 sequence (looked up)": "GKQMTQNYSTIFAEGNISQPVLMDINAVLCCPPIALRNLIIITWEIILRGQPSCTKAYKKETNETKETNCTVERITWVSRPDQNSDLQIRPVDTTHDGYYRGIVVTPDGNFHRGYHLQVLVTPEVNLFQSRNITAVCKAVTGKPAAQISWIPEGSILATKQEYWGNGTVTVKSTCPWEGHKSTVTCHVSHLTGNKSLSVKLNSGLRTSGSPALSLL", "assay": "ELISA, plate-bound human CD200RLa (2 ug/mL), antibody 0.0192-300 nM, O.D 450 nm; panel 'recombinant human CD200RLa'", "method_in_brief": "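Plates coated overnight (16 h, 4° C) with human or cynomolgus CD200RLa recombinant protein, blocked with 3% skim milk; bound antibody detected by TMB colour development, reaction stopped before reading.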"}, "Hybrid CD200R1 MH": {"target": "T7, Hybrid CD200R1 MH (mouse;human, UniProt Q9ES57;Q8TD46)", "T7 construct": "single domain; mouse D1 over human D2; also called MH hybrid domain; P001 MH domain", "T7 sequence (hybrid extracellular part, looked up)": "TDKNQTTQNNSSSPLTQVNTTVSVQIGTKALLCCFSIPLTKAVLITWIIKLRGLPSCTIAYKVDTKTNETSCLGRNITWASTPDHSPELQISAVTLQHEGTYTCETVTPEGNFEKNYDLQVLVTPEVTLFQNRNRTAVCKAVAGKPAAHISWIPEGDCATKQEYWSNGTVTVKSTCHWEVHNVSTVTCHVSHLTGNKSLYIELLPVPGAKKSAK", "assay": "ELISA, plate-bound MH hybrid (1 ug/mL), antibody 0.0192-300 nM, O.D 450 nm; panel 'P001 MH domain-1)'", "procedure": "Recombinant proteins were produced from the extracellular Ig-like V-type domain and Ig-like C2-type domain of human CD200R1, each designed as human-mouse (HM hybrid domain) and mouse-human (MH hybrid domain) recombinant proteins. A 96-well plate was coated at a concentration of 1 μg/mL with each protein at 4° C. for 16 hours and blocked with 3% skim milk. […] After color development with TMB substrate solution (Thermo Scientific, 34029, 1-Step™ Ultra TMB-ELISA Substrate Solution), the color reaction was stopped with a stop solution (Invitrogen, SS04, ELISA Stop Solution), and the absorbance was measured at an O.D. of 450 nm."}, "[12]": {"target": "T5, mouse CD200R1 protein (R&D systems, …)", "assay": "ELISA on coated mouse CD200R1"}}, "note": "Where “and” joins values, the source holds several entries; their conditions need not be identical. Identical values can stand only once."}
{"binder": "P001009v1 (antibody, V domains shown, P001009 with LC S52K and S94R (Kabat); also called P019001v1; P0001009v1) VH: EVQLLESGGGLVQPGGSLRLSCAASGFTFSSYDMSWVRQAPGKGLEWVSWISHGGGSIYYADSVKGRFTISRDNSKNTLYLQMNSLRAEDTAVYYCARDAPAYSAPLFDYWGQGTLVTVSS VL: QSVLTQPPSASGTPGQRVTISCSGSSSNIGNNAVNWYQQLPGTAPKLLIYYDKNRPSGVPDRFSGSKSGTSASLAISGLRSEDEADYYCAAWDDRLSGYVFGGGTKLTVL", "values": [{"measurement": "EC50 (nM), degree of signal transduction by the Dok2 protein", "setting": "[1]", "result": 1.28, "unit": "nM"}, {"measurement": "EC50", "setting": "[2]", "result": 0.16, "unit": "nM"}, {"measurement": "EC50", "setting": "[3]", "result": 0.3, "unit": "nM"}, {"measurement": "EC50", "setting": "[4]", "result": 0.17, "unit": "nM"}, {"measurement": "IC50 (nM) of IL-6 inhibition, LPS-treated U937-CD200R1 cells", "setting": "[5]", "result": 0.1, "unit": "nM"}, {"measurement": "IC50 (nM) of TNF-α inhibition, LPS-treated U937-CD200R1 cells", "setting": "[5]", "result": 0.18, "unit": "nM"}, {"measurement": "Kd", "setting": "[6]", "result": 0.021, "unit": "nM"}, {"measurement": "koff", "setting": "[6]", "result": 0.0001, "unit": "s⁻¹"}, {"measurement": "kon", "setting": "[6]", "result": "4.77e+06", "unit": "M⁻¹ s⁻¹"}, {"measurement": "Kd", "setting": "[7]", "result": 0.264, "unit": "nM"}, {"measurement": "koff", "setting": "[7]", "result": 0.00138, "unit": "s⁻¹"}, {"measurement": "kon", "setting": "[7]", "result": "5.23e+06", "unit": "M⁻¹ s⁻¹"}, {"measurement": "EC50 (read off the curve)", "setting": "[8]", "result": "~3", "unit": "nM"}]}
{"binder": "P001018v26 (antibody, V domains shown, H3-Y102T, L3-R92H) VH: QVQLVQSGAEVKKPGASVKVSCKASGYTFTSYVMHWVRQAPGQGLEWMGYINPYNDDTNYNEKFKGRVTMTRDTSTSTVYMELSSLRSEDTAVYYCAREDYYGSRWGTWGQGTLVTVSS VL: DIVLTQSPASLAVSPGQRATITCRASKSVSTSGYSYMHWYQQKPGQPPKLLIYLASNLESGVPARFSGSGSGTDFTLTINPVEANDTANYYCQHSHELLTFGQGTKVEIK", "values": [{"measurement": "binding result", "setting": "[9]", "result": "binds"}, {"measurement": "EC50 (read off the curve)", "setting": "[10]", "result": "~2 nM and ~4 nM"}, {"measurement": "binding result", "setting": "[11]", "result": "no binding (tested: 300 nM)"}]}
{"binder": "P001001 (IgG) (antibody, V domains shown) VH: EVQLLESGGGLVQPGGSLRLSCAASGFTFSSYDMHWVRQAPGKGLEWVSRISFTGSTSYNPSLKSRFTISRDNSKNTLYLQMNSLRAEDTAVYYCARDTWWEGYFDLWGQGTLVTVSS VL: QSVLTQPPSASGTPGQRVTISCSGSSSNIGNNHVSWYQQLPGTAPKLLIYDDTDRLTSVPNRFSGSKSGTSASLAISGLRSEDEADYYCGTWDSSLSAYVFGGGTKLTVL", "values": [{"measurement": "binding result", "setting": "Hybrid CD200R1 MH", "result": "no binding (tested: 300 nM)"}, {"measurement": "binding result", "setting": "[12]", "result": "no binding (tested: 300 nM (highest concentration tested))"}, {"measurement": "binding result", "setting": "[11]", "result": "no binding (tested: 300 nM)"}]}
{"binder": "P001016 (IgG) (antibody, V domains shown) VH: EVQLLESGGGLVQPGGSLRLSCAASGFTFSGYDMSWVRQAPGKGLEWVSGISYDGGSKYYADSVKGRFTISRDNSKNTLYLQMNSLRAEDTAVYYCAKDGYPLGAYYFDYWGQGTLVTVSS VL: QSVLTQPPSASGTPGQRVTISCSVSSSNIGSNYVSWYRQLPGTAPKLLIYDDSKRPSGVPDRFSGSKSGTSASLAISGLRSEDEADYYCGTWDASLNGYVFGGGTKLTVL", "values": [{"measurement": "binding result", "setting": "[12]", "result": "no binding (tested: 300 nM (highest concentration tested))"}]}
